Measured values reported in article PMC4430201 (Nature, 2014).

Biological target: the molecule itself
Assay: crystal structure

B1: lantibiotic dehydratase NisB (enzyme, Lactococcus lactis)
chain: MIKSSFKAQPFLVRNTILCPNDKRSFTEYTQVIETVSKNKVFLEQLLLANPKLYDVMQKYNAGLLKKKRVKKLFESIYKYYKRSYLRSTPFGLFSETSIGVFSKSSQYKLMGKTTKGIRLDTQWLIRLVHKMEVDFSKKLSFTRNNANYKFGDRVFQVYTINSSELEEVNIKYTNVYQIISEFCENDYQKYEDICETVTLCYGDEYRELSEQYLGSLIVNHYLISNLQKDLLSDFSWNTFLTKVEAIDEDKKYIIPLKKVQKFIQEYSEIEIGEGIEKLKEIYQEMSQILENDNYIQIDLISDSEINFDVKQKQQLEHLAEFLGNTTKSVRRTYLDDYKDKFIEKYGVDQEVQITELFDSTFGIGAPYNYNHPRNDFYESEPSTLYYSEEEREKYLSMYVEAVKNHNVINLDDLESHYQKMDLEKKSELQGLELFLNLAKEYEKDIFILGDIVGNNNLGGASGRFSALSPELTSYHRTIVDSVERENENKEITSCEIVFLPENIRHANVMHTSIMRRKVLPFFTSTSHNEVLLTNIYIGIDEKEKFYARDISTQEVLKFYITSMYNKTLFSNELRFLYEISLDDKFGNLPWELIYRDFDYIPRLVFDEIVISPAKWKIWGRDVNSKMTIRELIQSKEIPKEFYIVNGDNKVYLSQKNPLDMEILESAIKKSSKRKDFIELQEYFEDENIINKGEKGRVADVVVPFIRTRALGNEGRAFIREKRVSVERREKLPFNEWLYLKLYISINRQNEFLLSYLPDIQKIVANLGGNLFFLRYTDPKPHIRLRIKCSDLFLAYGSILEILKRSRKNRIMSTFDISIYDQEVERYGGFDTLELSEAIFCADSKIIPNLLTLIKDTNNDWKVDDVSILVNYLYLKCFFQNDNKKILNFLNLVSTKKVKENVNEKIEHYLKLLKVNNLGDQIFYDKNFKELKHAIKNLFLKMIAQDFELQKVYSIIDSIIHVHNNRLIGIERDKEKLIYYTLQRLFVSEEYMK
modifications: methylated prior to crystallization (residues not stated)
stoichiometry N: 2
